Experiments:
Experiment in all cases: cell-based or functional assay
[1] = target: Env of HIV-1 pseudovirus 3415.v1.c1 (HIV-1)
[2] = target: HIV-1 Env pseudovirus 928-28 (HIV-1)
[3] = target: MuLV envelope (negative control pseudovirus)
[4] = target: HIV-1 Env pseudovirus CNE8 (HIV-1)
[5] = target: WEAU_d15_410_787 Env pseudovirus (HIV-1)
[6] = target: CAAN5342.A2 Env pseudovirus (HIV-1)
[7] = target: 1394C9G1(Rev-) Env pseudovirus (HIV-1)
[8] = target: 62357_14_D3_4589 Env pseudovirus (HIV-1)
[9] = target: HIV-16055-2.3 Env pseudovirus (HIV-1)
[10] = target: BF1266.431a Env pseudovirus (HIV-1)
[11] = target: MS208.A1 Env pseudovirus (HIV-1)
[12] = target: CNE19 Env pseudovirus (HIV-1)
[13] = target: 1056_10_TA11_1826 Env pseudovirus (HIV-1)
[14] = target: Du156.12 Env pseudovirus (HIV-1)
[15] = target: THRO4156.18 Env pseudovirus (HIV-1)
[16] = target: Ce1086_B2 Env pseudovirus (HIV-1)
[17] = target: ZM53M.PB12 Env pseudovirus (HIV-1)
[18] = target: Du422.1 Env pseudovirus (HIV-1)
[19] = target: ZM247v1(Rev-) Env pseudovirus (HIV-1)
[20] = target: ZM197M.PB7 Env pseudovirus (HIV-1)
[21] = target: Ce0682_E4 Env pseudovirus (HIV-1)
[22] = target: 246F C1G Env pseudovirus (HIV-1)
[23] = target: 0260.v5.c36 Env pseudovirus (HIV-1)
[24] = target: 6244_13_B5_4576 Env pseudovirus (HIV-1)
[25] = target: T257-31 Env pseudovirus (HIV-1)
[26] = target: AC10.0.29 Env pseudovirus (HIV-1)
[27] = target: 9004SS_A3_4 Env pseudovirus (HIV-1)
[28] = target: 1006_11_C3_1601 Env pseudovirus (HIV-1)
[29] = target: CNE17 Env pseudovirus (HIV-1)
[30] = target: CNE58 Env pseudovirus (HIV-1)
[31] = target: 928-28 Env pseudovirus (HIV-1)
[32] = target: 249M B10 Env pseudovirus (HIV-1)
[33] = target: PVO.4 Env pseudovirus (HIV-1)
[34] = target: REJO4541.67 Env pseudovirus (HIV-1)
[35] = target: Ce703010054_2A2 Env pseudovirus (HIV-1)
[36] = target: RHPA4259.7 Env pseudovirus (HIV-1)
[37] = target: Q461.e2 Env pseudovirus (HIV-1)
[38] = target: Ce2060_G9 Env pseudovirus (HIV-1)
[39] = target: Q769.d22 Env pseudovirus (HIV-1)
[40] = target: ZM135M.PL10a Env pseudovirus (HIV-1)
[41] = target: 6535.3 Env pseudovirus (HIV-1)
[42] = target: 263-8 Env pseudovirus (HIV-1)
[43] = target: SC422661.8 Env pseudovirus (HIV-1)
[44] = target: 7030102001E5(Rev-) Env pseudovirus (HIV-1)

## 10-1074 (antibody)
[1]
  IC50: > 50 µg/mL
  IC80: > 50 µg/mL

## VRC01 (antibody)
[2]
  IC50 (Titer in TZM.bl cells): 0.41 µg/mL
  IC80 (Titer in TZM.bl cells): 1.7 µg/mL

## N49P19 (antibody)
[3]
  neutralization IC50: > 50 µg/mL
  neutralization IC80: > 50 µg/mL
  neutralization MPI: 0

## N49P9 (antibody)
[3]
  neutralization IC50: > 50 µg/mL
  neutralization IC80: > 50 µg/mL
  neutralization MPI: 13

## VRC07 (antibody)
[4]
  IC50 (Titer in TZM.bl cells): 0.45 µg/mL
  IC80 (Titer in TZM.bl cells): 1.56 µg/mL

## PGT121 (antibody)
[5]
  IC50: 0.026 µg/mL
  IC80: 0.077 µg/mL
[6]
  IC50: 0.007 µg/mL
  IC80: 0.023 µg/mL
[7]
  IC50: 0.264 µg/mL
  IC80: 1.95 µg/mL
[8]
  IC50: 2.6 µg/mL
  IC80: > 50 µg/mL
[9]
  IC50: 0.153 µg/mL
  IC80: 4.8 µg/mL
[10]
  IC50: > 50 µg/mL
  IC80: > 50 µg/mL
[11]
  IC50: > 50 µg/mL
  IC80: > 50 µg/mL
[12]
  IC50: 0.008 µg/mL
  IC80: 0.105 µg/mL
[13]
  IC50: 0.004 µg/mL
  IC80: 0.081 µg/mL
[14]
  IC50: 0.004 µg/mL
  IC80: 0.017 µg/mL
[15]
  IC50: > 50 µg/mL
  IC80: > 50 µg/mL
[16]
  IC50: < 0.001 µg/mL
  IC80: < 0.001 µg/mL
[17]
  IC50: < 0.001 µg/mL
  IC80: 0.004 µg/mL
[18]
  IC50: 0.039 µg/mL
  IC80: 0.143 µg/mL
[19]
  IC50: 0.028 µg/mL
  IC80: 0.082 µg/mL
[20]
  IC50: > 50 µg/mL
  IC80: > 50 µg/mL
[21]
  IC50: > 50 µg/mL
  IC80: > 50 µg/mL
[22]
  IC50: 0.041 µg/mL
  IC80: 0.14 µg/mL
[23]
  IC50: 0.053 µg/mL
  IC80: 0.197 µg/mL
[24]
  IC50: 0.061 µg/mL
  IC80: 0.347 µg/mL
[25]
  IC50: > 50 µg/mL
  IC80: > 50 µg/mL
[26]
  IC50: 0.024 µg/mL
  IC80: 0.073 µg/mL
[27]
  IC50: < 0.001 µg/mL
  IC80: 0.003 µg/mL
[28]
  IC50: 0.002 µg/mL
  IC80: 0.007 µg/mL
[29]
  IC50: 7.6 µg/mL
  IC80: > 50 µg/mL
[30]
  IC50: > 50 µg/mL
  IC80: > 50 µg/mL
[31]
  IC50: 44.2 µg/mL
  IC80: > 50 µg/mL
[32]
  IC50: > 50 µg/mL
  IC80: > 50 µg/mL
[33]
  IC50: 0.098 µg/mL
  IC80: 0.343 µg/mL
[34]
  IC50: 4.77 µg/mL
  IC80: > 50 µg/mL
[35]
  IC50: > 50 µg/mL
  IC80: > 50 µg/mL
[36]
  IC80: 0.035 µg/mL
[37]
  IC50: > 50 µg/mL
  IC80: > 50 µg/mL
[38]
  IC50: > 50 µg/mL
  IC80: > 50 µg/mL
[39]
  IC50: > 50 µg/mL
  IC80: > 50 µg/mL
[40]
  IC50: 0.716 µg/mL
  IC80: 5.25 µg/mL
[41]
  IC50: 0.002 µg/mL
  IC80: 0.008 µg/mL
[42]
  IC50: 0.648 µg/mL
  IC80: 3.96 µg/mL
[43]
  IC50: 0.038 µg/mL
  IC80: 0.177 µg/mL
[44]
  IC50: 0.009 µg/mL
  IC80: 0.027 µg/mL

Source: patent US20240117018A1
